# B1: TaSAMT1-B promoter E-box probe (dsDNA)
# DNA 1: CACGCGCATACGTGCTCATATGGCAATGAG
# DNA 2: CTCATTGCCATATGAGCACGTATGCGCGTG
# Target: T1, MBP-TaBZR1 (Triticum aestivum, UniProt A0A3B6AUH8 1-313)
# T1 sequence: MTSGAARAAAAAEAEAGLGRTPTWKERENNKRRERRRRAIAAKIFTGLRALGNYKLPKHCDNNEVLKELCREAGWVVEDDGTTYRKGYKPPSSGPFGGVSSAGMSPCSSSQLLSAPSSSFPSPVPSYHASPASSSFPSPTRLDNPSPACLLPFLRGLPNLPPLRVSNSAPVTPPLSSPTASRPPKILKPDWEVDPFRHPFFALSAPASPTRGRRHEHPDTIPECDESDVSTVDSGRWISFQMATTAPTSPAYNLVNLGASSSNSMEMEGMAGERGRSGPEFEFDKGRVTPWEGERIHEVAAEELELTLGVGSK
# Assay: EMSA; 1 nM probe; 1x LightShift binding buffer, 50 ng poly(dI-dC), 2.5% glycerol, 0.05% NP-40, 50 mM KCl, 5 mM MgCl2, 2 mM EDTA pH 8.0, 1 nM biotin probe, 25 C 20 min, 6% PAGE
# Settings: protein: recombinant; tags: N-terminal MBP (pCold-MBP); chain copies: 2; label: biotin (forward strand primer marked bio); blunt
binder,measurement,value
B1,binding result,binds

# From publication PMC11218785, “Methyltransferase TaSAMT1 mediates wheat freezing tolerance by integrating brassinosteroid and salicylic acid signaling”
